The labels stand for the following.
B1: suPAR_DB06_C05 (scFv, V domains shown)
VH: QVQLVQSGAEVKKPGASVKVSCKASGGTFSSYAISWVRQAPGQGLEWMGVIDPSGGTTDYAQKFQGRVTMTRDTSTSTVYMELSSLRSEDTAVYYCARGYDVDWFVYWGQGTLVTVSS
VL: DIQMTQSPSSLSASVGDRVTITCRTSQSISSFLNWYQQKPGKAPKLLIYDVSHLESGVPSRFSGSGSGTDFTLTISSLQPEDFATYYCQQYHSYPPTFGGGTKVEIK
B2: suPAR_DB06_F02 (scFv, V domains shown)
VH: QVQLVQSGAEVKKPGASVKVSCKASGYTFTNYYMHWVRQAPGQGLEWMGWIDHENGSTSYDQKFQGRVTMTRDTSTSTVYMELSSLRSEDTAVYYCARGYDVDWFVYWGQGTLVTVSS
VL: DIQMTQSPSSLSASVGDRVTITCRARQSVSYMYWYQQKPGKAPKLLIYRTSNLASGVPSRFSGSGSGTDFTLTISSLQPEDFATYYCQQYHSYPPTFGGGTKVEIK
B3: suPAR_DB06_E01 (scFv, V domains shown)
VH: QVQLVQSGAEVKKPGASVKVSCKASGFNFKDYYIHWVRQAPGQGLEWMGWMDPSSGNTAYAQKFQGRVTMTRDTSTSTVYMELSSLRSEDTAVYYCARGYDVDWFVYWGQGTLVTVSS
VL: B2 VL with R24S, V29I
B4: suPAR_DB06_F05 (scFv, V domains shown)
VH: B2 VH with Y27D, T28S, N31G, M34I, S57N, S59I
VL: B2 VL with R24S, Q27S
B5: suPAR_DB06_G01 (scFv, V domains shown)
VH: B2 VH with Y27D, N31G, S59I, D61A
VL: B2 VL with R24S, Q27S
B6: suPAR_DB06_F04 (scFv, V domains shown)
VH: B2 VH with T28R, N31S, H53P, S57N, S59I, D61A
VL: B2 VL with R24S
B7: suPAR_DB06_F06 (scFv, V domains shown)
VH: B2 VH with Y27G, T30I, N31G, Y32H, M34V, S57N, S59I
VL: B2 VL with R24S, Q27S
B8: suPAR_DB06_F12 (scFv, V domains shown)
VH: B2 VH with T30S, N31S, H53P, S57N, S59I, D61A
VL: B2 VL
B9: suPAR_DB06_F08 (scFv, V domains shown)
VH: B2 VH with N31G, Y32N, M34V, E54S, S57N, S59I
VL: B2 VL with R24S, Q27S
B10: suPAR_DB06_G06 (scFv, V domains shown)
VH: B2 VH with Y27F, N31A, H53P, S57N, S59I, D61A
VL: B2 VL with R24S, R26S
B11: suPAR_DB06_G03 (scFv, V domains shown)
VH: B2 VH with T30S, N31S, H53P, N55G, S57N, S59I, D61A
VL: B2 VL with R24S, Q27S
B12: suPAR_DB06_F03 (scFv, V domains shown)
VH: B2 VH with T28S, S57N, S59I, Y100N
VL: B2 VL with R24S, R26S
B13: suPAR_DB06_F11 (scFv, V domains shown)
VH: B2 VH with S59I, D61A
VL: B2 VL with R24S, Q27S, A54Q
B14: suPAR_DB06_F09 (scFv, V domains shown)
VH: B2 VH with N31T, H53P, N55G, S57N, S59I
VL: B2 VL with R24S, R26S
B15: suPAR_DB06_G02 (scFv, V domains shown)
VH: B2 VH with T28N, F29I, N31D, M34I, H53P, S59I
VL: B2 VL with Q27S
B16: suPAR_DB06_G04 (scFv, V domains shown)
VH: B2 VH with N31G, D52N, H53P, N55G, S59N, D61E
VL: B2 VL with R24S, Q27Y
B17: suPAR_DB03_A12 (scFv, V domains shown)
VH: QVQLVQSGAEVKKPGASVKVSCKASGYTFSRYYMHWVRQAPGQGLEWIGWMNPNTGDTGYAQKFQGRVTMTRDTSTSTVYMELSSLRSEDTAVYYCARGYDVDFFVYWGQGTLVTVSS
VL: DIQMTQSPSSLSASVGDRVTITCRASQGISGWLAWYQQKPGKAPKLLIYDASSLQSGVPSRFSGSGSGTDFTLTISSLQPEDFATYYCQQSYSDPLTFGGGTKVEIK
notes: screened as scFv
B18: suPAR_DB04_E02 (scFv, V domains shown)
VH: B2 VH with N31S, H53P, S59I
VL: B2 VL with Q27S, R49A
notes: scFv clone from phage display
B19: suPAR_DB01_C01 (scFv, V domains shown)
VH: B2 VH with N31G, S57N, S59I
VL: B2 VL with R24S, Q27S
notes: screened as scFv
B20: suPAR_DB01_A04 (scFv, V domains shown)
VH: B2 VH with N31G, S57N, S59I
VL: B2 VL with R24S, R26S
notes: screened as scFv
B21: suPAR_DB01_A05 (scFv, V domains shown)
VH: B2 VH with N31G, S57N, S59I
VL: B2 VL
notes: screened as scFv
B22: suPAR_DB01_A03 (scFv, V domains shown)
VH: B2 VH with N31S, Y32N, M34I
VL: B2 VL with R24S, Q27S
notes: screened as scFv
B23: suPAR_DB01_A02 (scFv, V domains shown)
VH: EVQLEESGAELVRPGALVKLSCKASGFNIKDYYIHWVKQRPEQGLEWIGWIDHENGNTIYDPKFQGKASITLDTSSNTAYLQLNSLTSEDTAVYYCARGYDVDWFVYWGQGTLVTVSS
VL: QIVLTQSPAIMSASPGEKVTIYCSARSSVSYMYWYQQKPGSSPKPWIYRTSNLASGVPARFSGSGSGTSYSLTISSMEAEDAATYYCQQYHSYPPTFGGGTKLEIK
notes: screened as scFv

Where a chain is given by its changes, count along the chain named.

This passage reports koff results from US20250215104A1 (WALDEN BIOSCIENCES, published 2025).

For one assay, the target named is T1, cynomolgus soluble urokinase plasminogen activator receptor (suPAR) (cynomolgus, UniProt Q9GK78 23-303, limits assumed).
T1 construct: Target antigen of the scFv off-rate screen; also called cynomolgus suPAR; cynomolgus uPAR
Nature of the assay: BLI (Octet) off-rate screen of scFv clones.
Target sequence in this assay (Q9GK78 23-303 limits assumed): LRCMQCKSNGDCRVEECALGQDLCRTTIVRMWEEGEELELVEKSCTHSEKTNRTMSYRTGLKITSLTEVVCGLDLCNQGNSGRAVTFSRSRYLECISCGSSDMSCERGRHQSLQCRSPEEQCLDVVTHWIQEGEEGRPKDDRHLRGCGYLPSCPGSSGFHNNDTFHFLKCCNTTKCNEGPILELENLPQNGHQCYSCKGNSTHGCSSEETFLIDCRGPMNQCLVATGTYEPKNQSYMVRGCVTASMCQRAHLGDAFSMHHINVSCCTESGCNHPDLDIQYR
Turning to B1, the off-rate (koff) (in general, the first-order rate constant of dissociation) worked out at 0.0623 s⁻¹.

Take B2: the dissociation rate constant (koff) stood at 0.000258 s⁻¹.

In turn, B3 yielded a koff of 0.000126 s⁻¹.

The molecule B4 came in with an off-rate constant (koff) of 3.1e-07 s⁻¹.

The molecule B5 gave a dissociation rate constant (koff) of 0.000134 s⁻¹.

The molecule B6 gave an off-rate (koff) of 0.000315 s⁻¹.

The molecule B7 returned an off-rate constant (koff) of 0.00055 s⁻¹.

In the case of B8, the koff was found to be 0.000195 s⁻¹.

With B9, the off-rate (koff) worked out at 0.000537 s⁻¹.

As to B10, the off-rate (koff) amounted to 5.28e-07 s⁻¹.

With B11, the koff came to 0.000231 s⁻¹.

B12 returned an off-rate constant (koff) of 0.00059 s⁻¹.

B13: the off-rate constant (koff) was 0.00059 s⁻¹.

As for B14, the koff was 0.000353 s⁻¹.

With B15, the koff turned out to be 0.000375 s⁻¹.

B16 registered a koff of 0.000223 s⁻¹.

The next assay has as its target T2, human soluble urokinase plasminogen activator receptor (hsuPAR) (human, UniProt Q03405 23-303, limits assumed).
T2 construct: Target antigen of the off-rate screen; also called human suPAR; rhuPAR-His
Nature of the assay: BLI (Octet) off-rate screen of scFv clones. Background: Biolayer interferometry detects binding as a change in optical thickness at a sensor tip.
T2 sequence (Q03405 23-303 limits assumed): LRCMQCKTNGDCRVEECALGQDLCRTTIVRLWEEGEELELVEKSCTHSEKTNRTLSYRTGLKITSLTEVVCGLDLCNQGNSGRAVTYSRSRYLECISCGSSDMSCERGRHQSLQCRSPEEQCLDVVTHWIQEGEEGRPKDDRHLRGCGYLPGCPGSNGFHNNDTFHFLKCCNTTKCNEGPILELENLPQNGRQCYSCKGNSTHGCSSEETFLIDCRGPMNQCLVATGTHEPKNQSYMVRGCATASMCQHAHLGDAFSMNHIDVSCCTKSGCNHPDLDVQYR
On to B17, for which the off-rate (koff) was determined as 0.0544 s⁻¹.

Another assay has as its target T3, human soluble urokinase plasminogen activator receptor (suPAR) (human, UniProt Q03405 23-303, limits assumed).
T3 construct: Target antigen of the scFv off-rate screen; also called hsuPAR; human suPAR
The assay is described as follows: BLI (Octet) off-rate screen of scFv clones.
T3 sequence (Q03405 23-303 limits assumed): as above
In turn, B1 yielded a koff of 0.373 s⁻¹.

The molecule B2 displayed an off-rate (koff) of 0.00157 s⁻¹.

B3 registered a koff of 0.00483 s⁻¹.

The molecule B4 displayed a koff of 0.00531 s⁻¹.

In turn, B5 showed an off-rate constant (koff) of 0.00148 s⁻¹.

Molecule B6 registered a dissociation rate constant (koff) of 0.00574 s⁻¹.

B7 showed a dissociation rate constant (koff) of 0.00331 s⁻¹.

Take B8: the koff was 0.00426 s⁻¹.

Regarding B9, the koff turned out to be 0.00174 s⁻¹.

B10 gave an off-rate constant (koff) of 0.00431 s⁻¹.

B11 showed a koff of 0.00381 s⁻¹.

As for B12, the koff stood at 0.004 s⁻¹.

In turn, B13 came in with a dissociation rate constant (koff) of 0.000947 s⁻¹.

As to B14, the off-rate (koff) stood at 0.00302 s⁻¹.

B15 displayed a koff of 0.00384 s⁻¹.

As to B16, the koff was determined as 0.00549 s⁻¹.

In another assay the target is T4, human soluble urokinase plasminogen activator receptor (hsuPAR) (human, UniProt Q03405 23-303, limits assumed).
T4 construct: also called human suPAR; rhuPAR-His
The assay is described as follows: off-rate screen of scFv clones (kdis), Octet BLI.
T4 sequence (Q03405 23-303 limits assumed): as above
For B18, the off-rate (koff) came to 0.00497 s⁻¹.

The target of a further assay is T5, human soluble urokinase plasminogen activator receptor (suPAR) (human, UniProt Q03405 23-303, limits assumed).
T5 construct: Target antigen of the off-rate screen; also called hsuPAR; human suPAR
Nature of the assay: off-rate (kdis) screen of scFv clones, biosensor (Octet).
T5 sequence (Q03405 23-303 limits assumed): as above
In turn, B19 showed a koff of 0.00122 s⁻¹.

For the molecule B20, the koff came out at 0.000911 s⁻¹.

Molecule B21 gave a koff of 0.00174 s⁻¹.

B22 yielded a dissociation rate constant (koff) of 0.00256 s⁻¹.

B23 showed a koff of 3.54e-07 s⁻¹.

The next assay deals with T6, cynomolgus soluble urokinase plasminogen activator receptor (suPAR) (cynomolgus, UniProt Q9GK78 23-303, limits assumed).
T6 construct: Target antigen of the off-rate screen; also called cynomolgus uPAR; cynomolgus suPAR
The assay is described as above.
Target sequence in this assay (Q9GK78 23-303 limits assumed): as the sequence (Q9GK78 23-303 limits assumed) above
For B19, the dissociation rate constant (koff) amounted to 0.000266 s⁻¹.

Consider B20, for which the koff was determined as 0.00021 s⁻¹.

Consider B21, for which the koff was 0.000326 s⁻¹.

B22: the koff was 0.000231 s⁻¹.
